Fewer inactive variants are shown than the library holds.
B1: TPR 5TU (parent)
chain: GGAUCUUCUCGAUCUAACAAAAAAGACAAAUCUGCCACAAAGCUUGAGAGCAUCUUCGGAUGCAGAGGCGGCAGCCUUCGGUGGCGCGAUAGCGCCAACGUUCUCAACUAUGACACGCAAAACGCGUGCUCCGUUGAAUGGAGUUUAUCAUG

Variants of: B1
Test: polymerase ribozyme fitness, log enrichment relative to wild type (log ratio); higher = more active; in vitro selection for triplet polymerase activity
Method in brief: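 Frozen incubation at −7 °C formed the core of a single, triplicate in vitro selection round applied to PCR-built, transcribed mutant libraries of each subunit of a heterodimeric triplet polymerase ribozyme. Extended constructs were gel-excised, captured with streptavidin beads and amplified by RT-PCR, and input and output libraries were Illumina-sequenced with a filter of ≥10 input reads and ≥1 read per output. Fitness is the logarithm of genotype enrichment relative to wild-type enrichment, with inverse-variance-weighted replicate averaging, and the logarithm is base 2.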

Variant | polymerase ribozyme fitness (log ratio)
G11C A30U U82C | ≤ -4.2
C10U A37U G50A A73U A122G | ≤ -4.2
G11U C38G G46A | -2.87
C10G A21G G59A | ≤ -4.2
C10G C14G G25C G59U C95U A110G | ≤ -4.2
G11U G94C A106G | -1.62
G11C C93A | -3.87
U9G U13C A24U A49C C51G A52C A73C U104A C108G | ≤ -4.2
A12C U56A G88U | -3.41
C10A G25A A29U A89C G92U C108U A113U G117C | ≤ -4.2
G11A U45A G46C G80C C87A | ≤ -4.2
C10G A29U C95U C108A | ≤ -4.2
C10U A17G A23C A24C A26G U31G A39U U44A C54G C57G C79A C96U G124A | ≤ -4.2
C10G A37G C51G A107G U145C U148G | ≤ -4.2
G11A A12U A52G U53C A91U | -4.08
G11C A120U | -2.55
U9G C85U | -3.41
C10G A91C C95U C103G C116G | ≤ -4.2
G11C A19C | -1.41
G11U A29U U55G G92U C93G C95A G133A U144A A150C | ≤ -4.2
U9G C75U A150G | ≤ -4.2

Variant | polymerase ribozyme fitness (log ratio)
C10U A60G | -2.5
G11U G88C | ≤ -4.2
U9C C57U G83A A119U G124C | ≤ -4.2
G11U C18G A21C U31C C57U A91G A113C G143U | ≤ -4.2
C10G A21U C87G A91U C95A | ≤ -4.2
U9C U82A G92U C116U U134G | ≤ -4.2
C10U C32G A39U U55A C95G C96A C149U | ≤ -4.2
G11U G74A C85A U90C G141A U148C | ≤ -4.2
G11C C85U A97U G124C | -3.4
C10U C38A G70A C93U A97U C116G U148G | ≤ -4.2
C10A U45A C69U C72U | ≤ -4.2
G11C C38G C87A C95U G100U C105U C118A C129G G133U | ≤ -4.2
C10G C54A G71A | ≤ -4.2
A12C A41G C87A A89C U144A | ≤ -4.2
C10U A12U A121C | -4.08
G11C A22C G50U U56A C96A G141A | -3.94
C10U U82A C87G A89U A142U | ≤ -4.2
C10U G67C | ≤ -4.2
G11C A21G A28U C38U C87A G133C U144G A150C | ≤ -4.2
A12C A66C | ≤ -4.2
C10G A47G A49G G71A C87U A97U A106G A107C U111G U134C | ≤ -4.2

Variant | polymerase ribozyme fitness (log ratio)
A12C G94A G152C | -3.98
G11C G46U U55A C87U C93U U127G A138C U145A | ≤ -4.2
U9G C27U A41U G46C U90G C96G A119C A122C | ≤ -4.2
A12C A41U C75U A122C C125U | -3.38
G11U G84A U144G | 0.53
C10G A17U A37C C93U | -4.18
C10G G92A U111G A150C | ≤ -4.2
A12C U102C A138C | ≤ -4.2
G11U A19U G81U C95U | -1.81
U9G A73G | -4.11
G11U A22G U45G U53G G58C C85U C87A C99G A106U G136A A142U | ≤ -4.2
C10U A16U A28G G46A A91G C93A U111G G152U | ≤ -4.2
A12C C51U C85A A150U | -0.931
C10G G88U C96U C132G | ≤ -4.2
U9G C27U U55A C85G C95G C123G G140U | ≤ -4.2
C10U G84A G126U | -4.02
C10U A19U C32G G80A G88U A115G U146A | ≤ -4.2
C10A A40U G67U G81C C149G | ≤ -4.2
G11C C76A | -1.78
C10G C63G C79U C85G C99A A107G A121U G143A | ≤ -4.2
C10G C79G | ≤ -4.2

Variant | polymerase ribozyme fitness (log ratio)
A12C A19U G80U A89G C96A | ≤ -4.2
C10U A16U G34U A39G G94A G141C | -3.56
U9G A17C A22U A29G G50A G68A | ≤ -4.2
G11U A28G A41U U61G G68A C96U A97C C108U G143U C149A | ≤ -4.2
A12C A24G G50C C72U C87G U111C | ≤ -4.2
G11C A16U G42U A113C | ≤ -4.2
G11U C57U G58A U104G C105U | -3.72
G11C A17U A23U C38U C95U A138G | ≤ -4.2
A12C C57U C72A C93G U111G U146G | ≤ -4.2
A12C A22G C54A G70U G100A C116G G117A U135G | ≤ -4.2
G11A A30G A41C A91U C95G G140C | ≤ -4.2
C10G A17U C54G C93U A106C C125A | ≤ -4.2
G11U A21U A37G A52C C85U | -4.18
C10A U31G G50A G58C C96A C116U | ≤ -4.2
G11A A12G A52G U56A G81U | -2.09
C10G A22U | -3.34
G11A C85A A121U C149U | -2.75
C10A A52C C63U A91G A113U | ≤ -4.2
G11A C85U U130G | ≤ -4.2
C10G U13G C57U C85U G152C | ≤ -4.2
G11C U56A C75U U145A | -1.61
